The values below come from patent publication US20230056099.

In one data set the target is thrombin (human alpha-thrombin) (UniProt P00734+P00734). Briefly: inhibition. Conditions: circular (5' and 3' ends joined); 0.1 nM thrombin, 2 uM fibrinogen, absorbance 350 nm; N = random nucleotide.
With “ATCTCGACTAGTCATAGGGGGCGCGAACATACGCGGTTGGTGTGGTTGGCTGACAANNNNNNNTTTTGGTGTCTCGGAT [M3]”, the IC50 (in general, the concentration needed to halve the response being measured) is 180 pM.

For “ATCTCGACTAGTCATAGGGGGCGCGAACATACGCGGTTGGTGTGGTTGGCTGACAATACTCGTNNNNNNNGTCTCGGAT [M4]”, the IC50 came out at 100 pM. In turn, “ATCTCGACTAGTCATAGGGGGCGCGAACATACGCGGTTGGTGTGGTTGGCTGACAATACTCGTTTTTGGTNNNNNNNNN [M5]” came in with an IC50 of 110 pM. Sequence “ATCTCGANNNNNNNTAGGGGGCGCGAACATACGCGGTTGGTGTGGTTGGCTGACAATACTCGTTTTTGGTGTCTCGGAT [M2]” yielded an IC50 of 360 pM. The same measure, in the same setting: then “NNNNNNNCTAGTCATAGGGGGCGCGAACATACGCGGTTGGTGTGGTTGGCTGACAATACTCGTTTTTGGTGTCTCGGAT [M1]”, with 370 pM.

Still in this data set, the particulars now being: circular; 0.1 nM thrombin, 2 uM fibrinogen, absorbance 350 nm; random pool carrying fixed GGTTGGTGTGGTTGG core.
Turning to “ATCTCGACTAGTCANNNNNNNNNNNNNNNNNNNNGGTTGGTGTGGTTGGNNNNNNNNNNNNNNNNNNNNTGTCTCGGAT [Lib (random circular nucleic acid)]”, the IC50 worked out at 72100 pM. This counts as double-digit nanomolar.
